# What was measured:
# [1] = tested on: T1, NPM2 (embryonic NPM1 paralog)
# T1 sequence (Q86SE8 1-214, species assumed, looked up): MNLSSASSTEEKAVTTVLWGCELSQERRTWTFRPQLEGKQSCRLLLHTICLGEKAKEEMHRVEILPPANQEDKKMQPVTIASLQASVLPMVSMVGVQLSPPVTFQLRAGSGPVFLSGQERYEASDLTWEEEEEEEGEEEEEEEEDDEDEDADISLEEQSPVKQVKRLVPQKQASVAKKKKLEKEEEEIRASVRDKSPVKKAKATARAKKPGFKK
# [2] = target: Nucleophosmin NPM1, wild type, full-length (UniProt P06748)
# [3] = tested on: Nap1 histone chaperone (a TTLL4 substrate protein)
# Sequence of Nucleophosmin NPM1, wild type, full-length (P06748 whole entry): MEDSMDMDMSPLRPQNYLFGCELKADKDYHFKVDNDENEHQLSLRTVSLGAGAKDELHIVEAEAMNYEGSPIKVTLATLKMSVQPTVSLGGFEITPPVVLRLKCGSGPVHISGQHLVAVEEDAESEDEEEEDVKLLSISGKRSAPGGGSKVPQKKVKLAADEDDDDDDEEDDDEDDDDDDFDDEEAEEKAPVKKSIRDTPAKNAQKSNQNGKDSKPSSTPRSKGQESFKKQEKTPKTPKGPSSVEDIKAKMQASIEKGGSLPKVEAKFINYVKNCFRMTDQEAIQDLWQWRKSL
substance,measurement,setting,value
"active human TTLL4 enzyme (Tubulin-Tyrosine Ligase Like 4), recombinant",in vitro glutamate-glutamylation,[1],"capable of catalyzing in vitro glutamate-glutamylation of Npm1, Npm2, and Nap1 histone chaperone substrates (not shown)"
same,"in vitro glutamate-glutamylation, immunoblot time course (FIG. 10)",NPM1c (AML-mutant NPM1),AML-mutant NPM1c is a better in vitro substrate for TTLL4 than the wildtype NPM1
same,glutamate-glutamylation of substrate (FIG. 2B),[2],TTLL4 glutamylates full-length NPM1
same,in vitro glutamate-glutamylation,[2],"capable of catalyzing in vitro glutamate-glutamylation of Npm1, Npm2, and Nap1 histone chaperone substrates (not shown)"
same,"in vitro glutamate-glutamylation, immunoblot time course (FIG. 10)",[2],AML-mutant NPM1c is a better in vitro substrate for TTLL4 than the wildtype NPM1
same,in vitro glutamate-glutamylation,[3],"capable of catalyzing in vitro glutamate-glutamylation of Npm1, Npm2, and Nap1 histone chaperone substrates (not shown)"
same,"kinase reaction, 32P-labeled phosphorylation (FIG. 7B)",[3],TTLL4 dependent 32P-labeled phosphorylation of Nap1 (a TTLL4 substrate protein)
